Columns and labels:
[1] = target: T1, REGN2431 (hmm.hTfRC); monomeric human Tfrc ectodomain, amino acids C89-F760, with N-terminal … (human, UniProt P02786 89-760); assay: SPR (Biacore), mAb from CHO supernatant captured on anti-human Fc, 100 nM hTfR-mmh injected, 25 C
T1 construct: also called hTfR-mmh; hTFR-mmh
Method: (§1) Biacore binding kinetics assays were conducted for the interaction of 32 anti-human TfR IgG1 monoclonal antibodies from CHO supernatants with TfR reagents at 25° C.
(§2) Equilibrium dissociation constants (KD) for the interaction of anti-TfR monoclonal antibodies with human and fascicularis monkey TfR ecto domain recombinant proteins were determined using a real-time surface plasmon resonance (SPR) based Biacore S200 biosensor. All binding studies were performed in 10 mM HEPES, 150 mM NaCl, 3 mM EDTA, and 0.05% v/v surfactant Tween-20, pH 7.4 (HBS-EP) running buffer at 37° C. The Biacore CM5 sensor surface was first derivatized by amine coupling with a monoclonal mouse anti-human Fc antibody (REGN2567) followed by a step to capture anti-TfR monoclonal antibodies in CHO conditioned media. […] The dissociation of TfR bound to anti-TfR monoclonal antibodies was monitored for 3 minutes in HBS-EP running buffer. At the end of each cycle, the anti-TfR monoclonal antibodies capture surface was regenerated using a 12-sec injection of 20 mM H₃PO₄. The association rate (ka) and dissociation rate (kd) were determined by fitting the real-time binding sensorgrams to a 1:1 binding model with mass transport limitation using Scrubber 2.0 c software. The dissociation equilibrium constant (KD) and dissociative half-life (t½) were calculated from the kinetic rate constants as: […]

[2] = target: T2, hmm.hTfRC (REGN2431), human transferrin receptor extracellular domain with hexahistidine-myc-myc tag (human, UniProt P02786 89-760); assay: SPR (Biacore), mAb captured on anti-human Fc, 100 nM hTFR-mmh, 25 C
T2 construct: Monomeric recombinant protein, 79210 g/mol; also called hTFR-mmh; His-myc-myc-hTFRC ecto

[3] = target: T3, mf TFRC ecto-mmh (REGN2054), monomeric monkey (cyno) Tfrc ectodomain with C-terminal myc-myc-hexahistidine tag (monkey (cyno), Macaca fascicularis, UniProt H9EXL1 89-760); assay: SPR (Biacore), mAb captured on anti-human Fc, 100 nM mfTfR-mmh, 25 C
T3 construct: range 89-760; also called mfTfR-mmh; mfTFR-mmh

[4] = target: T2, hmm.hTfRC (REGN2431), human transferrin …; assay: SPR (Biacore), mAb captured on anti-human Fc, 100 nM hTFR-mmh, 25 C; kd fixed at 1.00E-05
Method: as §2, with “All binding studies were performed in 10 mM HEPES, 150 mM NaCl, 3 mM EDTA, and 0.05% v/v surfactant Tween-20, pH 7.4 (HBS-EP) running buffer at 37° C.” left out

[5] = target: T2, hmm.hTfRC (REGN2431), human transferrin …; assay: SPR (Biacore), mAb from CHO supernatant captured on anti-human Fc, 100 nM hTFR-mmh injected, 25 C
[6] = target: T3, mf TFRC ecto-mmh (REGN2054), monomeric …; assay: SPR (Biacore), mAb from CHO supernatant captured on anti-human Fc, 100 nM mfTfR-mmh injected, 25 C
Method: as §1, §2

[7] = target: T4, REGN2054 (mf TFRC ecto-mmh); monomeric monkey (cyno) Tfrc ectodomain, amino acids C89-F760, with C-terminal … (cynomolgus monkey (Macaca fascicularis), UniProt H9EXL1 89-760 (rhesus entry)); assay: SPR (Biacore), mAb from CHO supernatant captured on anti-human Fc, 100 nM mfTFR-mmh injected, 25 C
T4 construct: range 89-760; also called mfTFR-mmh; mfTfR-mmh
Method: as §1, §2

T3 sequence (chain, as listed by the source): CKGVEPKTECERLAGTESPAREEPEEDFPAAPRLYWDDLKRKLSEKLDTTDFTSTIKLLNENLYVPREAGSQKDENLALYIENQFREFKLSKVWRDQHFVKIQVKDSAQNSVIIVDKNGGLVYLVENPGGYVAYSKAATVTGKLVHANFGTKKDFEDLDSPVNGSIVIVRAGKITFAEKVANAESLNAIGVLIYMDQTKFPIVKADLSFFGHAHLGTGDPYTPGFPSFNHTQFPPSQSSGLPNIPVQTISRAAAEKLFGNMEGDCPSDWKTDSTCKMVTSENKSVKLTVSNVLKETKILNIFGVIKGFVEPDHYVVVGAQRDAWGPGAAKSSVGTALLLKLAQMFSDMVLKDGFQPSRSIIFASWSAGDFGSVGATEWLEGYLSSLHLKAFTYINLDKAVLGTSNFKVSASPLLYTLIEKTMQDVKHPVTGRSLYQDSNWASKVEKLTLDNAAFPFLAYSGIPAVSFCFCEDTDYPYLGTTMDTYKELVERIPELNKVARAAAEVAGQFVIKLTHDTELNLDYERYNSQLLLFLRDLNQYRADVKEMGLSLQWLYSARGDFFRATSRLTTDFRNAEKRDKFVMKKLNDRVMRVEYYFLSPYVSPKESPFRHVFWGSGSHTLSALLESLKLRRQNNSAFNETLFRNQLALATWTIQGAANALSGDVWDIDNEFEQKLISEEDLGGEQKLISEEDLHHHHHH
T2 sequence (P02786 other isoform, or with tags, fused parts or gaps): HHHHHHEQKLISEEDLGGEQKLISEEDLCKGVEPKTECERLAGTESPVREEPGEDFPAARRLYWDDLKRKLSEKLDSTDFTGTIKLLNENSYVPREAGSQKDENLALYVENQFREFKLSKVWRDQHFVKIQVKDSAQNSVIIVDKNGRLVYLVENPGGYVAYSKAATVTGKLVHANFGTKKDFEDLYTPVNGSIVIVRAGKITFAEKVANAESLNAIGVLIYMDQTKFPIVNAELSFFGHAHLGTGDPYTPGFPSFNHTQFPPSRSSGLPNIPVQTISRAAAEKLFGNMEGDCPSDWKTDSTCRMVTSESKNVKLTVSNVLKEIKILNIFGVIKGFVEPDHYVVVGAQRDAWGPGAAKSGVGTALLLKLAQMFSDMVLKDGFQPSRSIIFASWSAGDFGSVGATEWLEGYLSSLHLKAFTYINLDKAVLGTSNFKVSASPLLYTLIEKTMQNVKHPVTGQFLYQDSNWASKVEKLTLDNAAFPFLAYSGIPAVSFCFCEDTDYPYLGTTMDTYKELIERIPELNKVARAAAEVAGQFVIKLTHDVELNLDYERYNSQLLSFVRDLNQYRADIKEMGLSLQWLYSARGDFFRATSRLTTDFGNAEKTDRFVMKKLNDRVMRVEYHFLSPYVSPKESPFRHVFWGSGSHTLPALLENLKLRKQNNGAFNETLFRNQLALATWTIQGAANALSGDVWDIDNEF
T4 sequence (chain, as listed by the source): as the sequence (chain, as listed by the source) above
T1 sequence (P02786 other isoform, or with tags, fused parts or gaps): as the sequence (P02786 other isoform, or with tags, fused parts or gaps) above

Kd [1] | 100 nM Ag Bound (RU) [2] | koff [2] | kon [2] | t½ [2] | 100 nM Ag Bound (RU) [3] | Kd [3] | koff [3] | kon [3] | t½ [3] | Kd [4] | binding result [5] | binding result [6] | Kd [2] | Kd [7] | Binder
0.0656 nM |  |  |  |  |  |  |  |  |  |  |  |  |  |  | 31863B anti-human TfR IgG1 monoclonal antibody (antibody, V domains shown, Tested as bivalent IgG1 from CHO primary supernatant) VH: EVQLVESGGGLVQPGGSLRLSCAASGFTFNSYAMTWVRQAPGKGLEWVSFIGGSTGNTYYAGSVKGRFTISSDNSKKTLYLQMNSLRAEDTAVYYCAKGGAARRMEYFQHWGQGTLVTVSS VL: DIQMTQSPSSLSASIGDRVTITCRASQGISNYLAWYQQKPGKVPKLLIYAASTLQSGVPSRFSGSGSGTDFTLTISSLQPEDVATYYCQNHNSVPLTFGGGTKVEIKR
 | 1080 RU | < 1e-05 s⁻¹ | 152000 M⁻¹ s⁻¹ | > 19.2 h | 145 RU | 18.3 nM | 0.00298 s⁻¹ | 163000 M⁻¹ s⁻¹ | 0.065 h | ≤ 0.0656 nM |  |  |  |  | 31863B (antibody, human IgG1, kappa, V domains shown, Tested as bivalent human IgG1 from CHO primary supernatant) VH: EVQLVESGGGLVQPGGSLRLSCAASGFTFNSYAMTWVRQAPGKGLEWVSFIGGSTGNTYYAGSVKGRFTISSDNSKKTLYLQMNSLRAEDTAVYYCAKGGAARRMEYFQHWGQGTLVTVSS VL: DIQMTQSPSSLSASIGDRVTITCRASQGISNYLAWYQQKPGKVPKLLIYAASTLQSGVPSRFSGSGSGTDFTLTISSLQPEDVATYYCQNHNSVPLTFGGGTKVEIKR
 | 6 RU |  |  |  | -7 RU |  |  |  |  |  | no binding (tested: 100 nM) |  |  |  | 69305 (antibody, human IgG1, kappa, V domains shown, Tested as bivalent human IgG1 from CHO primary supernatant) VH: QVQLVESGGGVVQPGRSLRLSCAASGFTFSSYGMHWVRQAPGKGLEWVAVIWYDGSNKYYADSVKGRFTISRDISKNTLYLQMNSLRAEDTAVYYCAGQLDLFFDYWGQGTLVTVSS VL: DIQMTQSPSSLSASVGDRVTITCRASQSIDRYLNWYRQKPGKAPKLLIYTTSSLQSGVPSRFSGSGSGTDFTLTLSSLQPEDFATYYCQQSYSPPLTFGGGTKVEIKR
 | 883 RU | < 1e-05 s⁻¹ | 122000 M⁻¹ s⁻¹ | > 19.2 h | 364 RU | 1.16 nM | 7.13e-05 s⁻¹ | 61000 M⁻¹ s⁻¹ | 2.7 h | ≤ 0.0823 nM |  |  |  |  | 12795B (antibody, human IgG1, kappa, V domains shown, Tested as bivalent human IgG1 from CHO primary supernatant) VH: EVQLVESGGGLVQPGGSLRLSCATSGFTFTSYDMKWVRQAPGLGLEWVSAISGSGGNTYYADSVKGRFTISRDNSRNTLYLQMNSLRAEDTAVYYCTRSHDFGAFDYFDYWGQGTLVTVSS VL: DIQMTQSPSSLSASVGDRVTITCRASQGIRDHFGWYQQKPGKAPKRLIYAASSLHSGVPSRFSGSGSGTEFTLTISSLQPEDFATYYCLQYDTYPLTFGGGTKVEIKR
 | 9 RU |  |  |  | 1 RU |  |  |  |  |  | no binding (tested: 100 nM) | no binding (tested: 100 nM) |  |  | 69332 (antibody, human IgG1, kappa, V domains shown, Tested as bivalent human IgG1 from CHO primary supernatant) VH: QVTLRESGPALVKPSQTLTLTCTFSGFSLNTYGMFVSWIRQPPGKALEWLAHIHWDDDKYYSTSLKTRLTISKDTSKNQVVLTMTNMDPVDTATYYCARGHNNLNYIIHWGQGTLVTVSS VL: AIQMTQSPSSLSASVGDRVTITCRASQGIRNDLGWYQQKPGKAPKLLIYAASTLQSGVPSRFSGSGSGTDFTLTISSLQPEDFATYYCLQDYNYPFTFGPGTKVDIKR
 | 11 RU | 0.00439 s⁻¹ | 600000 M⁻¹ s⁻¹ | 0.0433 h | 5 RU |  |  |  |  |  |  | no binding (tested: 100 nM) | 7 nM |  | 12834B (antibody, human IgG1, kappa, V domains shown, Tested as bivalent human IgG1 from CHO primary supernatant) VH: QVQLVQSGAEVKKPGASVKVSCKASGYTFTSYGISWVRQAPGQGLEWMGWISVYHGNTNYAQKFQGRVTMTTDTSTSTAYMELRSLRSDDTAVYYCAREGYYDFWSGYYPFDYWGQGTLVTVSS VL: not shown
41 nM |  |  |  |  |  |  |  |  |  |  |  |  |  | 20.5 nM | 69331 anti-human TfR IgG1 monoclonal antibody (antibody, V domains shown, Tested as bivalent IgG1 from CHO primary supernatant) VH: QVQLVESGGGVVQPGRSLRLSCIASGFTFSVYGIHWVRQAPGKGLEWMAVISHDGNIKHYADSVKGRFTISRDNSKNTLYLQINSLRTEDTAVYYCAKDTWNSLDTFDIWGQGTMVTVSS VL: DIQLTQSPSSLSASVGDRVTITCWASQGISSYLAWYQQKPGKAPKLLIYAASTLQSGVPSRFSGSGSGTEFTLTISSLQPEDFATYYCQQLNSYPLTFGGGTKVEIKR
 | 660 RU | 5.33e-05 s⁻¹ | 118000 M⁻¹ s⁻¹ | 3.62 h | 11 RU |  |  |  |  |  |  | no binding (tested: 100 nM) | 0.448 nM |  | 12839B (antibody, human IgG1, kappa, V domains shown, Tested as bivalent human IgG1 from CHO primary supernatant; also called H1H12839B; REGN17510) VH: QVQLVESGGGVVQPGRSLRLSCAASGFPFSNYVMYWVRQAPGKGLEWVALIFFDGKKNYHADSVKGRFTITRDNSKNMLYLQMNSLRPEDAAVYYCAKIHCPNGVCYKGYYGMDVWGQGTTVTVSS VL: not shown
 | 1150 RU | 0.000116 s⁻¹ | 173000 M⁻¹ s⁻¹ | 1.66 h | 4 RU |  |  |  |  |  |  | no binding (tested: 100 nM) | 0.67 nM |  | 12841B (antibody, human IgG1, kappa, V domains shown, Tested as bivalent human IgG1 from CHO primary supernatant; also called H1H12841B; REGN17511) VH: EVQLVESGGGLVQPGGSLRLSCAASGFTFSNYWMNWVRQAPGKGLEWVANIKEDGGKKLYVDSVKGRFTISRDNAKNSLFLQMNSLRAEDTAVYYCAREDTTLVVDYYYYGMDVWGQGTTVTVSS VL: not shown
 | 1100 RU | 0.000199 s⁻¹ | 168000 M⁻¹ s⁻¹ | 0.965 h | 13 RU |  |  |  |  |  |  | no binding (tested: 100 nM) | 1.18 nM |  | 12845B (antibody, human IgG1, kappa, V domains shown, Tested as bivalent human IgG1 from CHO primary supernatant; also called H1H12845B; REGN17513) VH: EVQLVESGGGLVQPGGSLRLSCAASGFTVSNYEMNWVRQAPGKGLEWVSYISSSTSNIYYADSVKGRFTISRDNAENSLYLQMNSLRVEDTAVYYCVRDGIVVVPVGRGYYYYGLDVWGQGTTVTVSS VL: not shown
 |  |  |  |  |  |  |  |  |  |  |  |  |  | 1.16 nM | 12795B anti-human TfR IgG1 monoclonal antibody (antibody, V domains shown, Tested as bivalent IgG1 from CHO primary supernatant) VH: EVQLVESGGGLVQPGGSLRLSCATSGFTFTSYDMKWVRQAPGLGLEWVSAISGSGGNTYYADSVKGRFTISRDNSRNTLYLQMNSLRAEDTAVYYCTRSHDFGAFDYFDYWGQGTLVTVSS VL: DIQMTQSPSSLSASVGDRVTITCRASQGIRDHFGWYQQKPGKAPKRLIYAASSLHSGVPSRFSGSGSGTEFTLTISSLQPEDFATYYCLQYDTYPLTFGGGTKVEIKR
